Patent US11833164B2, “Methods of treating Fabry disease in patients having a mutation in the GLA gene” (Amicus Therapeutics, Inc., priority 2019, dated 2023)

B1: D153V (protein)
chain: MQLRNPELHLGCALALRFLALVSWDIPGARALDNGLARTPTMGWLHWERFMCNLDCQEEPDSCISEKLFMEMAELMVSEGWKDAGYEYLCIDDCWMAPQRDSEGRLQADPQRFPHGIRQLANYVHSKGLKLGIYADVGNKTCAGFPGSFGYYVIDAQTFADWGVDLLKFDGCYCDSLENLADGYKHMSLALNRTGRSIVYSCEWPLYMWPFQKPNYTEIRQYCNHWRNFADIDDSWKSIKSILDWTSFNQERIVDVAGPGGWNDPDMLVIGNFGLSWNQQVTQMALWAIMAAPLFMSNDLRHISPQAKALLQDKDVIAINQDPLGKQGYQLRQGDNFEVWERPLSGLAWAVAMINRQEIGGPRSYTIAVASLGKGVACNPACFITQLLPVKRKLGFYEWTSRLRSHINPTGTVLLQLENTMQMSLKDLL
B2: Q157P (protein)
chain: MQLRNPELHLGCALALRFLALVSWDIPGARALDNGLARTPTMGWLHWERFMCNLDCQEEPDSCISEKLFMEMAELMVSEGWKDAGYEYLCIDDCWMAPQRDSEGRLQADPQRFPHGIRQLANYVHSKGLKLGIYADVGNKTCAGFPGSFGYYDIDAPTFADWGVDLLKFDGCYCDSLENLADGYKHMSLALNRTGRSIVYSCEWPLYMWPFQKPNYTEIRQYCNHWRNFADIDDSWKSIKSILDWTSFNQERIVDVAGPGGWNDPDMLVIGNFGLSWNQQVTQMALWAIMAAPLFMSNDLRHISPQAKALLQDKDVIAINQDPLGKQGYQLRQGDNFEVWERPLSGLAWAVAMINRQEIGGPRSYTIAVASLGKGVACNPACFITQLLPVKRKLGFYEWTSRLRSHINPTGTVLLQLENTMQMSLKDLL
B3: T158I (protein)
chain: MQLRNPELHLGCALALRFLALVSWDIPGARALDNGLARTPTMGWLHWERFMCNLDCQEEPDSCISEKLFMEMAELMVSEGWKDAGYEYLCIDDCWMAPQRDSEGRLQADPQRFPHGIRQLANYVHSKGLKLGIYADVGNKTCAGFPGSFGYYDIDAQIFADWGVDLLKFDGCYCDSLENLADGYKHMSLALNRTGRSIVYSCEWPLYMWPFQKPNYTEIRQYCNHWRNFADIDDSWKSIKSILDWTSFNQERIVDVAGPGGWNDPDMLVIGNFGLSWNQQVTQMALWAIMAAPLFMSNDLRHISPQAKALLQDKDVIAINQDPLGKQGYQLRQGDNFEVWERPLSGLAWAVAMINRQEIGGPRSYTIAVASLGKGVACNPACFITQLLPVKRKLGFYEWTSRLRSHINPTGTVLLQLENTMQMSLKDLL
B4: T158A (protein)
chain: MQLRNPELHLGCALALRFLALVSWDIPGARALDNGLARTPTMGWLHWERFMCNLDCQEEPDSCISEKLFMEMAELMVSEGWKDAGYEYLCIDDCWMAPQRDSEGRLQADPQRFPHGIRQLANYVHSKGLKLGIYADVGNKTCAGFPGSFGYYDIDAQAFADWGVDLLKFDGCYCDSLENLADGYKHMSLALNRTGRSIVYSCEWPLYMWPFQKPNYTEIRQYCNHWRNFADIDDSWKSIKSILDWTSFNQERIVDVAGPGGWNDPDMLVIGNFGLSWNQQVTQMALWAIMAAPLFMSNDLRHISPQAKALLQDKDVIAINQDPLGKQGYQLRQGDNFEVWERPLSGLAWAVAMINRQEIGGPRSYTIAVASLGKGVACNPACFITQLLPVKRKLGFYEWTSRLRSHINPTGTVLLQLENTMQMSLKDLL
B5: D153Y (protein)
chain: MQLRNPELHLGCALALRFLALVSWDIPGARALDNGLARTPTMGWLHWERFMCNLDCQEEPDSCISEKLFMEMAELMVSEGWKDAGYEYLCIDDCWMAPQRDSEGRLQADPQRFPHGIRQLANYVHSKGLKLGIYADVGNKTCAGFPGSFGYYYIDAQTFADWGVDLLKFDGCYCDSLENLADGYKHMSLALNRTGRSIVYSCEWPLYMWPFQKPNYTEIRQYCNHWRNFADIDDSWKSIKSILDWTSFNQERIVDVAGPGGWNDPDMLVIGNFGLSWNQQVTQMALWAIMAAPLFMSNDLRHISPQAKALLQDKDVIAINQDPLGKQGYQLRQGDNFEVWERPLSGLAWAVAMINRQEIGGPRSYTIAVASLGKGVACNPACFITQLLPVKRKLGFYEWTSRLRSHINPTGTVLLQLENTMQMSLKDLL
B6: Q157K (protein)
chain: MQLRNPELHLGCALALRFLALVSWDIPGARALDNGLARTPTMGWLHWERFMCNLDCQEEPDSCISEKLFMEMAELMVSEGWKDAGYEYLCIDDCWMAPQRDSEGRLQADPQRFPHGIRQLANYVHSKGLKLGIYADVGNKTCAGFPGSFGYYDIDAKTFADWGVDLLKFDGCYCDSLENLADGYKHMSLALNRTGRSIVYSCEWPLYMWPFQKPNYTEIRQYCNHWRNFADIDDSWKSIKSILDWTSFNQERIVDVAGPGGWNDPDMLVIGNFGLSWNQQVTQMALWAIMAAPLFMSNDLRHISPQAKALLQDKDVIAINQDPLGKQGYQLRQGDNFEVWERPLSGLAWAVAMINRQEIGGPRSYTIAVASLGKGVACNPACFITQLLPVKRKLGFYEWTSRLRSHINPTGTVLLQLENTMQMSLKDLL
B7: A156G (protein)
chain: MQLRNPELHLGCALALRFLALVSWDIPGARALDNGLARTPTMGWLHWERFMCNLDCQEEPDSCISEKLFMEMAELMVSEGWKDAGYEYLCIDDCWMAPQRDSEGRLQADPQRFPHGIRQLANYVHSKGLKLGIYADVGNKTCAGFPGSFGYYDIDGQTFADWGVDLLKFDGCYCDSLENLADGYKHMSLALNRTGRSIVYSCEWPLYMWPFQKPNYTEIRQYCNHWRNFADIDDSWKSIKSILDWTSFNQERIVDVAGPGGWNDPDMLVIGNFGLSWNQQVTQMALWAIMAAPLFMSNDLRHISPQAKALLQDKDVIAINQDPLGKQGYQLRQGDNFEVWERPLSGLAWAVAMINRQEIGGPRSYTIAVASLGKGVACNPACFITQLLPVKRKLGFYEWTSRLRSHINPTGTVLLQLENTMQMSLKDLL
B8: Q157L (protein)
chain: MQLRNPELHLGCALALRFLALVSWDIPGARALDNGLARTPTMGWLHWERFMCNLDCQEEPDSCISEKLFMEMAELMVSEGWKDAGYEYLCIDDCWMAPQRDSEGRLQADPQRFPHGIRQLANYVHSKGLKLGIYADVGNKTCAGFPGSFGYYDIDALTFADWGVDLLKFDGCYCDSLENLADGYKHMSLALNRTGRSIVYSCEWPLYMWPFQKPNYTEIRQYCNHWRNFADIDDSWKSIKSILDWTSFNQERIVDVAGPGGWNDPDMLVIGNFGLSWNQQVTQMALWAIMAAPLFMSNDLRHISPQAKALLQDKDVIAINQDPLGKQGYQLRQGDNFEVWERPLSGLAWAVAMINRQEIGGPRSYTIAVASLGKGVACNPACFITQLLPVKRKLGFYEWTSRLRSHINPTGTVLLQLENTMQMSLKDLL
B9: Q157E (protein)
chain: MQLRNPELHLGCALALRFLALVSWDIPGARALDNGLARTPTMGWLHWERFMCNLDCQEEPDSCISEKLFMEMAELMVSEGWKDAGYEYLCIDDCWMAPQRDSEGRLQADPQRFPHGIRQLANYVHSKGLKLGIYADVGNKTCAGFPGSFGYYDIDAETFADWGVDLLKFDGCYCDSLENLADGYKHMSLALNRTGRSIVYSCEWPLYMWPFQKPNYTEIRQYCNHWRNFADIDDSWKSIKSILDWTSFNQERIVDVAGPGGWNDPDMLVIGNFGLSWNQQVTQMALWAIMAAPLFMSNDLRHISPQAKALLQDKDVIAINQDPLGKQGYQLRQGDNFEVWERPLSGLAWAVAMINRQEIGGPRSYTIAVASLGKGVACNPACFITQLLPVKRKLGFYEWTSRLRSHINPTGTVLLQLENTMQMSLKDLL

System: mutant form of α-Gal A expressed in HEK-293 cells
Test: HEK assay (GLP HEK / Migalastat Amenability Assay): α-Gal A activity in lysates of transiently transfected HEK-293 cells incubated with or without 10 μM migalastat
Type: cell-based, human
Settings: for Absolute increase (% WT): 10 μM migalastat versus baseline; for Relative increase: 10 μM migalastat α-Gal A activity relative to baseline; for 10 μM migalastat α-Gal A activity (% WT): 5 days; for 10 μM migalastat α-Gal A activity (% WT) / Baseline α-Gal A activity (% WT): percentage of baseline wild-type α-Gal A activity; for 10 μM migalastat α-Gal A activity (% WT) / Baseline α-Gal A activity (% WT) / Baseline α-Gal A activity / 10 μM migalastat α-Gal A activity: mean ± SEM; for Baseline α-Gal A activity (% WT): absence of migalastat; for Baseline α-Gal A activity / 10 μM migalastat α-Gal A activity: lysates of HEK-293 cells transfected with the mutant form; for Baseline α-Gal A activity: incubated 5 days in the absence of migalastat; for 10 μM migalastat α-Gal A activity: incubated 5 days with 10 μM migalastat
Outline: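 Activity reported as 4-MU released (nmol/mg/hr), mean±SEM, from lysates of transiently transfected HEK-293 cells expressing mutant α-Gal A, cultured with or without 10 μM migalastat.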

Molecule | Absolute increase (% WT) | Relative increase | 10 μM migalastat α-Gal A activity (% WT) | Baseline α-Gal A activity (% WT) | Baseline α-Gal A activity [nmol/mg/h] | 10 μM migalastat α-Gal A activity [nmol/mg/h]
B1 | 25.0 | 2.2 | 42.4 ± 1.6 | 17.4 ± 2 | 7357 ± 1139 | 16301 ± 766
B2 | 40.6 | 5.4 | 49.6 ± 3.4 | 9 ± 1 | 3887 ± 487 | 20888 ± 1527
B3 | 18.8 | 1.4 | 67.8 ± 3.4 | 49 ± 2.7 | 17360 ± 1159 | 24097 ± 1695
B4 | 28.7 | 1.7 | 67.3 ± 3.1 | 38.6 ± 2.5 | 14835 ± 1107 | 25678 ± 1673
B5 | 23.3 | 1.8 | 52.4 ± 2.8 | 29.1 ± 3.1 | 12609 ± 1299 | 22535 ± 1174
B6 | 55.6 | 3.2 | 79.7 ± 5 | 24.1 ± 1.8 | 9815 ± 1083 | 31331 ± 2428
B7 | 16.9 | 1.4 | 63.6 ± 4.3 | 46.7 ± 2.7 | 17406 ± 1187 | 23415 ± 1710
B8 | 60.2 | 5.1 | 74.4 ± 4.3 | 14.3 ± 1.5 | 5734 ± 700 | 28942 ± 2013
B9 | 24.1 | 1.3 | 101.5 ± 6.1 | 77.4 ± 4.1 | 28269 ± 1306 | 37204 ± 2126
